For experiment [1], the target named is Jurkat cultured leukemic cells (unnamed cell surface lectin receptors). The experiment can be described thus: lectin binding to cultured Jurkat cells, lectin alone (method not described).
Experiment [2] deals with COLO 205 cultured colon cells (unnamed cell surface lectin receptors). Kind of experiment: lectin binding to cultured COLO 205 cells, lectin alone (method not described).
Experiment [3] concerns the target Molt 4 cultured leukemic cells (unnamed cell surface lectin receptors). The experiment can be described thus: lectin binding to cultured Molt 4 cells, lectin alone (method not described).
Experiment [4] deals with PA-1 cultured ovarian cells (unnamed cell surface lectin receptors). Kind of experiment: lectin binding to cultured PA-1 cells, lectin alone (method not described).
The target of experiment [5] is native Sclerotium rolfsii lectin (SRL) (Sclerotium rolfsii). Kind of experiment: inhibition by mucin of native lectin binding to Jurkat cells.
The target is the same in experiment [6]. The experiment can be described thus: inhibition by mucin of native lectin binding to COLO 205 cells.
For experiment [7] the target is unchanged. Kind of experiment: inhibition by mucin of native lectin binding to PA-1 cells.
The target is the same in experiment [8]. The experiment can be described thus: inhibition by mucin of native lectin binding to Molt 4 cells.

Consider native Sclerotium rolfsii lectin (SRL), for which the % positive cells in experiment [1] stood at 33.8%; in experiment [2] it was 91.7%; in experiment [3] it was 88.5%; in experiment [4], 96.7%.
As to mucin, the % positive cells (lectin + mucin) in experiment [5] stood at 0.5%; in experiment [6], 0.99%; in experiment [7], 1.63%; in experiment [8], 0.24%.

These data come from patent EP3418296A1.
